# Measurements taken from publication PMC9959560.
# B1: SF-B4GALNT2: N77Q (protein)
# parent chain: MTSGGSRFLWLLKILVIILVLGIVGFMFGSMFLQAVFSSPKPELPSPAPGVQKLKLLPEERLRNLFSYDGIWLFPKNQCKCEANKEQGGYNFQDAYGQSDLPAVKARRQAEFEHFQRREGLPRPLPLLVQPNLPFGYPVHGVEVMPLHTVPIPGLQFEGPDAPVYEVTLTASLGTLNTLADVPDSVVQGRGQKQLIISTSDRKLLKFILQHVTYTSTGYQHQKVDIVSLESRSSVAKFPVTIRHPVIPKLYDPGPERKLRNLVTIATKTFLRPHKLMIMLRSIREYYPDLTVIVADDSQKPLEIKDNHVEYYTMPFGKGWFAGRNLAISQVTTKYVLWVDDDFLFNEETKIEVLVDVLEKTELDVVGGSVLGNVFQFKLLLEQSENGACLHKRMGFFQPLDGFPSCVVTSGVVNFFLAHTERLQRVGFDPRLQRVAHSEFFIDGLGTLLVGSCPEVIIGHQSRSPVVDSELAALEKTYNTYRSNTLTRVQFKLALHYFKNHLQCAA
# How the values were obtained:
# [1] = anti-FLAG WB normalised to β-actin, HeLa; conditions: glycan lost; control: wild-type SF
# [2] = WB of culture media, HeLa (data not shown); conditions: glycan lost; control: wild-type SF
# [3] = anisomycin chase 2-10 h, anti-FLAG WB, HeLa; conditions: glycan lost; control: wild-type SF
# [4] = non-reducing SDS-PAGE and WB, dimer fraction, HeLa; conditions: glycan lost; control: wild-type SF
# [5] = anti-Sda KM694 WB of HeLa glycoproteins, normalised; conditions: glycan lost; control: wild-type SF
# [6] = confocal colocalisation with TMEM165 and Calnexin, HeLa; conditions: glycan lost; control: wild-type SF-eGFP
# [7] = UDP-[3H]GalNAc transfer to fetuin, COS-7 lysates, normalised; conditions: glycan lost; control: wild-type SF
protein,measurement,setting,value
B1,expression_or_secretion,[1],decreases
same,expression_or_secretion,[2],no change
same,degradation_or_half_life,[3],increases
same,oligomerisation,[4],decreases
same,enzymatic_activity,[5],no change
same,localisation_or_trafficking,[6],changes
same,enzymatic_activity,[7],decreases
